Assay results as given in patent publication US20140087995A1 (published 2014).
Numbered stars: 1 amine (or outer) side, 2 acyl side, 3 side chain; on linkers, the order of the positions; unused ones are H or OH. Bridge positions count the residues as written; N and C are the ends. Side chains are listed from the residue outwards. Ends that are not written are not given here. * marks the point of attachment. C20 diacid = O=C(O)CCCCCCCCCCCCCCCCCCC(=O)*; γGlu = O=C(O)[C@H](CCC(=O)[*:2])N[*:1]; AEEA = NCCOCCOCC(=O)O

T1: human calcitonin receptor (human, UniProt P30988 25-474)
T1 sequence (looked up): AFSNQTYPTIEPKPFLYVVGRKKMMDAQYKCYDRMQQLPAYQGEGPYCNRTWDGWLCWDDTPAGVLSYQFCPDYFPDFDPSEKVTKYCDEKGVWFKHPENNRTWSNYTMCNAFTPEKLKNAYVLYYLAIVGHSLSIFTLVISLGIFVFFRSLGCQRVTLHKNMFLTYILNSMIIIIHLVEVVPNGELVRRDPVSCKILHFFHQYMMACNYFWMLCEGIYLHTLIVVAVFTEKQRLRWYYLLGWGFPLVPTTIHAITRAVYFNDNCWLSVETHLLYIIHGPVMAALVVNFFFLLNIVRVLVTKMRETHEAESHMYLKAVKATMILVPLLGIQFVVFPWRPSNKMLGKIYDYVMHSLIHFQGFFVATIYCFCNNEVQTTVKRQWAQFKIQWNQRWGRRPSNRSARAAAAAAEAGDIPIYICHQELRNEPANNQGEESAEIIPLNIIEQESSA

B1: N^ε1-[2-[2-[2-[[(4S)-4-carboxy-4-(19-carboxynonadecanoylamino)butanoyl]amino]ethoxy]ethoxy]acetyl]-[Arg14,Arg17,Pro21,Pro27]-h-amylin (peptide)
peptide: K([AEEA-γGlu-C20 diacid])CNTATCATQRLARFLRHSSPNFGAIPSSTNVGSNTY-NH2
modifications: disulfide 2-7; N-terminus assumed
SMILES: CC[C@H](C)[C@H](NC(=O)[C@H](C)NC(=O)CNC(=O)[C@H](Cc1ccccc1)NC(=O)[C@H](CC(N)=O)NC(=O)[C@@H]1CCCN1C(=O)[C@H](CO)NC(=O)[C@H](CO)NC(=O)[C@H](Cc1c[nH]cn1)NC(=O)[C@H](CCCNC(=N)N)NC(=O)[C@H](CC(C)C)NC(=O)[C@H](Cc1ccccc1)NC(=O)[C@H](CCCNC(=N)N)NC(=O)[C@H](C)NC(=O)[C@H](CC(C)C)NC(=O)[C@H](CCCNC(=N)N)NC(=O)[C@H](CCC(N)=O)NC(=O)[C@@H](NC(=O)[C@H](C)NC(=O)[C@@H]1CSSC[C@H](NC(=O)[C@@H](N)CCCCNC(=O)COCCOCCNC(=O)CC[C@H](NC(=O)CCCCCCCCCCCCCCCCCCC(=O)O)C(=O)O)C(=O)N[C@@H](CC(N)=O)C(=O)N[C@@H]([C@@H](C)O)C(=O)N[C@@H](C)C(=O)N[C@@H]([C@@H](C)O)C(=O)N1)[C@@H](C)O)C(=O)N1CCC[C@H]1C(=O)N[C@@H](CO)C(=O)N[C@@H](CO)C(=O)N[C@H](C(=O)N[C@@H](CC(N)=O)C(=O)N[C@H](C(=O)NCC(=O)N[C@@H](CO)C(=O)N[C@@H](CC(N)=O)C(=O)N[C@H](C(=O)N[C@@H](Cc1ccc(O)cc1)C(N)=O)[C@@H](C)O)C(C)C)[C@@H](C)O
notes: also called compound 82
B2: N^ε1-[2-[2-[2-[[(4S)-4-carboxy-4-(19-carboxynonadecanoylamino)butanoyl]amino]ethoxy]ethoxy]acetyl]-[Arg17,Pro21,Pro27,His34]-h-amylin (peptide)
peptide: K([AEEA-γGlu-C20 diacid])CNTATCATQRLANFLRHSSPNFGAIPSSTNVGHNTY-NH2
modifications: disulfide 2-7; N-terminus assumed
SMILES: CC[C@H](C)[C@H](NC(=O)[C@H](C)NC(=O)CNC(=O)[C@H](Cc1ccccc1)NC(=O)[C@H](CC(N)=O)NC(=O)[C@@H]1CCCN1C(=O)[C@H](CO)NC(=O)[C@H](CO)NC(=O)[C@H](Cc1c[nH]cn1)NC(=O)[C@H](CCCNC(=N)N)NC(=O)[C@H](CC(C)C)NC(=O)[C@H](Cc1ccccc1)NC(=O)[C@H](CC(N)=O)NC(=O)[C@H](C)NC(=O)[C@H](CC(C)C)NC(=O)[C@H](CCCNC(=N)N)NC(=O)[C@H](CCC(N)=O)NC(=O)[C@@H](NC(=O)[C@H](C)NC(=O)[C@@H]1CSSC[C@H](NC(=O)[C@@H](N)CCCCNC(=O)COCCOCCNC(=O)CC[C@H](NC(=O)CCCCCCCCCCCCCCCCCCC(=O)O)C(=O)O)C(=O)N[C@@H](CC(N)=O)C(=O)N[C@@H]([C@@H](C)O)C(=O)N[C@@H](C)C(=O)N[C@@H]([C@@H](C)O)C(=O)N1)[C@@H](C)O)C(=O)N1CCC[C@H]1C(=O)N[C@@H](CO)C(=O)N[C@@H](CO)C(=O)N[C@H](C(=O)N[C@@H](CC(N)=O)C(=O)N[C@H](C(=O)NCC(=O)N[C@@H](Cc1c[nH]cn1)C(=O)N[C@@H](CC(N)=O)C(=O)N[C@H](C(=O)N[C@@H](Cc1ccc(O)cc1)C(N)=O)[C@@H](C)O)C(C)C)[C@@H](C)O
notes: also called compound 76
B3: N^ε1-[2-[2-[2-[[(4S)-4-carboxy-4-(19-carboxynonadecanoylamino)butanoyl]amino]ethoxy]ethoxy]acetyl]-[Arg17,Pro21,Pro27,Arg34]-h-amylin (peptide)
peptide: K([AEEA-γGlu-C20 diacid])CNTATCATQRLANFLRHSSPNFGAIPSSTNVGRNTY-NH2
modifications: disulfide 2-7; N-terminus assumed
SMILES: CC[C@H](C)[C@H](NC(=O)[C@H](C)NC(=O)CNC(=O)[C@H](Cc1ccccc1)NC(=O)[C@H](CC(N)=O)NC(=O)[C@@H]1CCCN1C(=O)[C@H](CO)NC(=O)[C@H](CO)NC(=O)[C@H](Cc1c[nH]cn1)NC(=O)[C@H](CCCNC(=N)N)NC(=O)[C@H](CC(C)C)NC(=O)[C@H](Cc1ccccc1)NC(=O)[C@H](CC(N)=O)NC(=O)[C@H](C)NC(=O)[C@H](CC(C)C)NC(=O)[C@H](CCCNC(=N)N)NC(=O)[C@H](CCC(N)=O)NC(=O)[C@@H](NC(=O)[C@H](C)NC(=O)[C@@H]1CSSC[C@H](NC(=O)[C@@H](N)CCCCNC(=O)COCCOCCNC(=O)CC[C@H](NC(=O)CCCCCCCCCCCCCCCCCCC(=O)O)C(=O)O)C(=O)N[C@@H](CC(N)=O)C(=O)N[C@@H]([C@@H](C)O)C(=O)N[C@@H](C)C(=O)N[C@@H]([C@@H](C)O)C(=O)N1)[C@@H](C)O)C(=O)N1CCC[C@H]1C(=O)N[C@@H](CO)C(=O)N[C@@H](CO)C(=O)N[C@H](C(=O)N[C@@H](CC(N)=O)C(=O)N[C@H](C(=O)NCC(=O)N[C@@H](CCCNC(=N)N)C(=O)N[C@@H](CC(N)=O)C(=O)N[C@H](C(=O)N[C@@H](Cc1ccc(O)cc1)C(N)=O)[C@@H](C)O)C(C)C)[C@@H](C)O
notes: also called compound 78
B4: N^ε1-[2-[2-[2-[[(4S)-4-carboxy-4-(19-carboxynonadecanoylamino)butanoyl]amino]ethoxy]ethoxy]acetyl]-[His14,Arg17,Pro21,Pro27,Arg34]-h-amylin (peptide)
peptide: K([AEEA-γGlu-C20 diacid])CNTATCATQRLAHFLRHSSPNFGAIPSSTNVGRNTY-NH2
modifications: disulfide 2-7; N-terminus assumed
SMILES: CC[C@H](C)[C@H](NC(=O)[C@H](C)NC(=O)CNC(=O)[C@H](Cc1ccccc1)NC(=O)[C@H](CC(N)=O)NC(=O)[C@@H]1CCCN1C(=O)[C@H](CO)NC(=O)[C@H](CO)NC(=O)[C@H](Cc1c[nH]cn1)NC(=O)[C@H](CCCNC(=N)N)NC(=O)[C@H](CC(C)C)NC(=O)[C@H](Cc1ccccc1)NC(=O)[C@H](Cc1c[nH]cn1)NC(=O)[C@H](C)NC(=O)[C@H](CC(C)C)NC(=O)[C@H](CCCNC(=N)N)NC(=O)[C@H](CCC(N)=O)NC(=O)[C@@H](NC(=O)[C@H](C)NC(=O)[C@@H]1CSSC[C@H](NC(=O)[C@@H](N)CCCCNC(=O)COCCOCCNC(=O)CC[C@H](NC(=O)CCCCCCCCCCCCCCCCCCC(=O)O)C(=O)O)C(=O)N[C@@H](CC(N)=O)C(=O)N[C@@H]([C@@H](C)O)C(=O)N[C@@H](C)C(=O)N[C@@H]([C@@H](C)O)C(=O)N1)[C@@H](C)O)C(=O)N1CCC[C@H]1C(=O)N[C@@H](CO)C(=O)N[C@@H](CO)C(=O)N[C@H](C(=O)N[C@@H](CC(N)=O)C(=O)N[C@H](C(=O)NCC(=O)N[C@@H](CCCNC(=N)N)C(=O)N[C@@H](CC(N)=O)C(=O)N[C@H](C(=O)N[C@@H](Cc1ccc(O)cc1)C(N)=O)[C@@H](C)O)C(C)C)[C@@H](C)O
notes: also called compound 84
B5: N^ε1-[2-[2-[2-[[(4S)-4-carboxy-4-(19-carboxynonadecanoylamino)butanoyl]amino]ethoxy]ethoxy]acetyl]-[Gly14,Arg17,Pro21,Pro27,Pro31]-h-amylin (peptide)
peptide: K([AEEA-γGlu-C20 diacid])CNTATCATQRLAGFLRHSSPNFGAIPSSTPVGSNTY-NH2
modifications: disulfide 2-7; N-terminus assumed
SMILES: CC[C@H](C)[C@H](NC(=O)[C@H](C)NC(=O)CNC(=O)[C@H](Cc1ccccc1)NC(=O)[C@H](CC(N)=O)NC(=O)[C@@H]1CCCN1C(=O)[C@H](CO)NC(=O)[C@H](CO)NC(=O)[C@H](Cc1c[nH]cn1)NC(=O)[C@H](CCCNC(=N)N)NC(=O)[C@H](CC(C)C)NC(=O)[C@H](Cc1ccccc1)NC(=O)CNC(=O)[C@H](C)NC(=O)[C@H](CC(C)C)NC(=O)[C@H](CCCNC(=N)N)NC(=O)[C@H](CCC(N)=O)NC(=O)[C@@H](NC(=O)[C@H](C)NC(=O)[C@@H]1CSSC[C@H](NC(=O)[C@@H](N)CCCCNC(=O)COCCOCCNC(=O)CC[C@H](NC(=O)CCCCCCCCCCCCCCCCCCC(=O)O)C(=O)O)C(=O)N[C@@H](CC(N)=O)C(=O)N[C@@H]([C@@H](C)O)C(=O)N[C@@H](C)C(=O)N[C@@H]([C@@H](C)O)C(=O)N1)[C@@H](C)O)C(=O)N1CCC[C@H]1C(=O)N[C@@H](CO)C(=O)N[C@@H](CO)C(=O)N[C@H](C(=O)N1CCC[C@H]1C(=O)N[C@H](C(=O)NCC(=O)N[C@@H](CO)C(=O)N[C@@H](CC(N)=O)C(=O)N[C@H](C(=O)N[C@@H](Cc1ccc(O)cc1)C(N)=O)[C@@H](C)O)C(C)C)[C@@H](C)O
notes: also called compound 71

target: T1, human calcitonin receptor; assay: cell-based or functional assay

| hCTR funct. EC50 [nM] | Binder |
| --- | --- |
| 12.7 | B1 |
| 7.37 | B2 |
| 8.17 | B3 |
| 5.49 | B4 |
| 0.527 | B5 |
